T1: human CD24 on cells (human, UniProt P25063 27-59)
T1 chain (looked up): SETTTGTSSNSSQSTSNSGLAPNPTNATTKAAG


Biological target: T1, human CD24 on cells
Assay: cell-based or functional assay

Binder	EC50 of Phagocytosis assay, IgG1, Kappa; HEK293-CD24	EC50 of Phagocytosis assay, IgG1, Kappa; MCF-7	EC50 of Phagocytosis assay, IgG1, Kappa; NALM6	EC50 of Phagocytosis assay, IgG1, Kappa; OVCAR3	EC50 of Phagocytosis assay, IgG4, Kappa; HEK293-CD24	EC50 of Phagocytosis assay, IgG4, Kappa; MCF-7	EC50 of Phagocytosis assay, IgG4, Kappa; NALM6	EC50 of Phagocytosis assay, IgG4, Kappa; OVCAR3
59-G9D7, IgG1, Kappa (antibody, V domains shown) VH: QVQLQQPGADLVKPGASVKLSCKASGYTVTTYWMHWVRQRPGRGLEWIGRIDPNSGETKYSEKFKNKATLTVDRPSSTAYMQLSSLTFEDSAVYFCAIYYYLNNFLFDYWGQGTTLTVSS VL: ENVLTQSPAIMSASPGEKVTMTCRASSSVSSSYLHWYQKKSGASPKLWIYSTSNLASGVPARFSGSGSGTSYSLTISSVEAEDAATYYCQQYSGYPLTFGAGTKLELK	4.76 µg/mL	2.05 µg/mL	7.9 µg/mL	0.97 µg/mL				
62-F7E9, IgG1, Kappa (antibody, V domains shown) VH: QVQLQQPGAELVKPGASVKLSCKASGYTSTSYWLHWVKQRPGRGLEWIGRIDPNSGETKFNEKFKSQATLTVDKPSSTAYMQLNSLTSEDSAVYYCALYYYGSILFDYWGQGTTLTVSS VL: ENVLTQSPAIMSASPGEKVTMTCRTSSIISSGFLHWYQQKSGASPKLWIYSTSNLASGVPARFSGSGSGTSYSLTISSVEAEDAATYYCQQYSGHPLTFGAGTKLELK	5.15 µg/mL	2.08 µg/mL	8.62 µg/mL	1.63 µg/mL				
69-D5G10, IgG4, Kappa (antibody, V domains shown) VH: EVKLEESGGGLVQPGGSMKLSCVVSGLTFSNHWMNWVRQSPEKGLEWVAQIQLKSDNYATRFAESVKGRFTISRDDSKSDVYLQMNNLRTEDTGIYYCTTGTDYWGQGTTLTVSS VL: not shown					0.37 µg/mL	1.02 µg/mL	0.55 µg/mL	0.51 µg/mL
69-D5G10, IgG1, Kappa (antibody, V domains shown) VH: EVKLEESGGGLVQPGGSMKLSCVVSGLTFSNHWMNWVRQSPEKGLEWVAQIQLKSDNYATRFAESVKGRFTISRDDSKSDVYLQMNNLRTEDTGIYYCTTGTDYWGQGTTLTVSS VL: not shown	0.22 µg/mL	0.42 µg/mL	0.43 µg/mL	8.44 µg/mL				
66-D1B10, IgG1, Kappa (antibody, V domains shown) VH: EVRLEESGGGFVQPGGSMKLSCVASGLTFPNHWMNWVRQSPERGLAWVAQIQLKSDNYATRYVESVKGRFTISRDDSESTVYLQMNNLRAEDTGIYYCTTGTDYWGQGTTLTVSS VL: not shown	7.46 µg/mL	0.84 µg/mL	2.48 µg/mL	0.73 µg/mL				
65-F3C7, IgG1, Kappa (antibody, V domains shown) VH: EVRLEESGGGFVQPGGSMKLSCVASGLTFPNHWMNWVRQSLERGLAWVAQIQLKSDNYATRYVESVKGRFTISRDDSKSTVYLQMNNLRPEDTGIYYCTTGTDYWGQGTTLTVSS VL: not shown	0.75 µg/mL	0.4 µg/mL	2.01 µg/mL	0.23 µg/mL				
65-F3C7, IgG4, Kappa (antibody, V domains shown) VH: EVRLEESGGGFVQPGGSMKLSCVASGLTFPNHWMNWVRQSLERGLAWVAQIQLKSDNYATRYVESVKGRFTISRDDSKSTVYLQMNNLRPEDTGIYYCTTGTDYWGQGTTLTVSS VL: not shown					0.09 µg/mL	2.25 µg/mL	6.01 µg/mL	5.74 µg/mL
63-C5A5, IgG4, Kappa (antibody, V domains shown) VH: EVNLEESGGGLVQPGGSMEFSCVASGLTFSDHWMNWVRQSPEKGLEWVAQIQLKSDNYAIRYVESVKGRFSISRDDSKSSVYLQMNNLRAEDSGIYYCTTGTDYWGQGTTLTVSS VL: not shown					0.46 µg/mL	24.7 µg/mL	6.58 µg/mL	1.62 µg/mL
63-C5A5, IgG1, Kappa (antibody, V domains shown) VH: EVNLEESGGGLVQPGGSMEFSCVASGLTFSDHWMNWVRQSPEKGLEWVAQIQLKSDNYAIRYVESVKGRFSISRDDSKSSVYLQMNNLRAEDSGIYYCTTGTDYWGQGTTLTVSS VL: not shown	0.4 µg/mL	0.74 µg/mL	0.7 µg/mL	8.48 µg/mL				
45-H1E4, IgG1, Kappa (antibody, V domains shown) VH: QIQLVQSGPELKKPGETVKISCKASGYTFTTYGMSWMKQAPGKGLKWMGWINTYSGVPAYADDFKGRFAFSLDTSASTAYLQINNLKNEDTATYFCARSGYPWSPHSYSTDYWGQGISVTVSS VL: DVLLTQTPLSLPVSLGDQASISCKSSQSIVHSNGNTYLEWYLQKPGQSPKRLIYKVSNRFSGVPDRFSGSGSGTDFTLKISRVEAEDLGVYYCFQGSHVPWTFGGGTKLEIK	0.29 µg/mL	1.02 µg/mL	1.25 µg/mL	0.59 µg/mL				

Next, values leading:

EC50 of Phagocytosis assay, IgG1, Kappa; HEK293-CD24	EC50 of Phagocytosis assay, IgG1, Kappa; MCF-7	EC50 of Phagocytosis assay, IgG1, Kappa; NALM6	EC50 of Phagocytosis assay, IgG1, Kappa; OVCAR3	EC50 of Phagocytosis assay, IgG4, Kappa; HEK293-CD24	EC50 of Phagocytosis assay, IgG4, Kappa; MCF-7	EC50 of Phagocytosis assay, IgG4, Kappa; NALM6	EC50 of Phagocytosis assay, IgG4, Kappa; OVCAR3	Binder
0.09 µg/mL	0.47 µg/mL	0.42 µg/mL	0.17 µg/mL					76-F8C6, IgG1, Kappa (antibody, V domains shown) VH: EVKLEESGGGLVQPGGSMKLSCVASGFTFTNSWMNWVRQSPERGLDWVAQIQLKSDNYATRYVESVKGRFTISRDDSKNSVYLQMNNLRAEDTGIYYCTTGTDYWSQGTTLTVSS VL: not shown
0.04 µg/mL	0.7 µg/mL	0.61 µg/mL	0.15 µg/mL					70-F4E5, IgG1, Kappa (antibody, V domains shown) VH: EVNLEESGGGLVQPGGSRQLSCVASGLTFSKHWMNWVRQSPDKGLEWVAQIQLKSDNYAIRYVDSVKGRFTISRDDSENTVYLQMNNLRAEDTGIYYCTTGTDYWGQGTTLTVSS VL: not shown
				0.21 µg/mL	0.84 µg/mL	0.63 µg/mL	5.61 µg/mL	70-F4E5, IgG4, Kappa (antibody, V domains shown) VH: EVNLEESGGGLVQPGGSRQLSCVASGLTFSKHWMNWVRQSPDKGLEWVAQIQLKSDNYAIRYVDSVKGRFTISRDDSENTVYLQMNNLRAEDTGIYYCTTGTDYWGQGTTLTVSS VL: not shown
0.05 µg/mL	0.28 µg/mL	0.19 µg/mL	0.1 µg/mL					74-H4C6 (4451), IgG1, Kappa (antibody, V domains shown) VH: EVQLQQSGPELVKPGASVKISCKASGYDFTGYHMNWVKQSPEKSLEWIGEINPITSDKTFNQKFKSKATLTVDRSSSTAYMYLKSLTSEDSAVYYCARRDYGTSLDYWGQGTTLTVSS VL: DVQITQSPSYLAASPGETITIYCRASKSISKYLAWYQEKPEKTNRLLIYAGSTLHSGIPSRFRGSGSGKDFTLTVSGLEPEDFAMYYCQQHNEYPITFGAGTKLELK
				0.86 µg/mL	2.4 µg/mL	1.05 µg/mL	0.37 µg/mL	80-F10A6, IgG4, Kappa (antibody, V domains shown) VH: EVQLQQSGPVLVNPGASVKISCKASGYSFTGYYMNWVKQSPEKSLEWIGEVNPITGDTTYSQNFKAKTTLTVDRSSSTAYMQLKSLTSEDSAVYYCTRRDYGTSLDYWGQGTTLTVSS VL: DVQITQSPSYLAASPGETITIHCRASKSISRYLAWYQEKPGKINTLLIYAGSTLHLGIPSRFSGSGSGTDFTLTISSLELEDFAMYYCQQHNEYPITFGAGTKLELK
